The target in the experiment is recombinant human Pol δ core+p68 trimer (p125/p50/p68) (human) (UniProt P28340).

This is an account of results in publication PMC3377666.

recombinant human Pol δ core+p68 trimer (p125/p50/p68) (human), sequence (P28340 whole entry, stated change not applied, chain 1 of 3): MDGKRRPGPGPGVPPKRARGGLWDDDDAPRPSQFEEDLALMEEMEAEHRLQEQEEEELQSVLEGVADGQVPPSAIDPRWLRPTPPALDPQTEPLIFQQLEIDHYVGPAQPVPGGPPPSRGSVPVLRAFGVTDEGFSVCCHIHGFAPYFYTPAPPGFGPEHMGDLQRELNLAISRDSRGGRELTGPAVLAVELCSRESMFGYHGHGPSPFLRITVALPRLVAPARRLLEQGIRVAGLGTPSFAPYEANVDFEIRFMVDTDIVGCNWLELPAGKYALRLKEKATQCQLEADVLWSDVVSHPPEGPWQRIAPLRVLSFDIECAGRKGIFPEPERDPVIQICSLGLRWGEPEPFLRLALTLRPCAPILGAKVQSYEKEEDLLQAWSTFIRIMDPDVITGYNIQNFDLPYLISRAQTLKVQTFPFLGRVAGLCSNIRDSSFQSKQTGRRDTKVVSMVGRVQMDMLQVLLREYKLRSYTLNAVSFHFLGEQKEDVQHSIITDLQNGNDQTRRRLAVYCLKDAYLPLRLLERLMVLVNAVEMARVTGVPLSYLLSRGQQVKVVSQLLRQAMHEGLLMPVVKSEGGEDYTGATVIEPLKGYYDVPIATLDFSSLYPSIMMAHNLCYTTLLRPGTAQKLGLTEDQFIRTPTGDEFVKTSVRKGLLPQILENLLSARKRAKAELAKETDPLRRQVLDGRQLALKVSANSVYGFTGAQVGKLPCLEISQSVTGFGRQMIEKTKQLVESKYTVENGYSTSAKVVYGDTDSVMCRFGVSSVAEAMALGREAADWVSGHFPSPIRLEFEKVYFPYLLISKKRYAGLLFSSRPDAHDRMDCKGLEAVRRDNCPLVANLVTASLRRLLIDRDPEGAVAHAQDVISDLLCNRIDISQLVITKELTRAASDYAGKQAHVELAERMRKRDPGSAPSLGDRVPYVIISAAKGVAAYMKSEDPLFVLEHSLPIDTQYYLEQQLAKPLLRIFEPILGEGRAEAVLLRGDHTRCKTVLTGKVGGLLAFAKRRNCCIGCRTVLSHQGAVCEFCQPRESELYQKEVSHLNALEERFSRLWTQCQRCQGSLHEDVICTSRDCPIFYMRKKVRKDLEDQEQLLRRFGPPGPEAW
recombinant human Pol δ core+p68 trimer (p125/p50/p68) (human), sequence (P49005 whole entry, stated change not applied, chain 2 of 3, further chain): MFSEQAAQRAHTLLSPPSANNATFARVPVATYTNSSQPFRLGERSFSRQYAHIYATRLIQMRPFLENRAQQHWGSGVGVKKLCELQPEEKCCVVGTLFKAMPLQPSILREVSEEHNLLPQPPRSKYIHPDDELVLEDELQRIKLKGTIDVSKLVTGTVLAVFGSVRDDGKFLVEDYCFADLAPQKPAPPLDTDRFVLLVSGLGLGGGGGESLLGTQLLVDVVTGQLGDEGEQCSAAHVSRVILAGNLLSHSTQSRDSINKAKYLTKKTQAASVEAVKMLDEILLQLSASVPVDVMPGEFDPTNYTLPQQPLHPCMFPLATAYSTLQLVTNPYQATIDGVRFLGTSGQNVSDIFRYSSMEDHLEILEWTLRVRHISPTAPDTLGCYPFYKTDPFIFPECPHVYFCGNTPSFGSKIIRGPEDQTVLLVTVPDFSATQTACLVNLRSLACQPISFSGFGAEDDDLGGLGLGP
recombinant human Pol δ core+p68 trimer (p125/p50/p68) (human), sequence (Q15054 whole entry, stated change not applied, chain 3 of 3, further chain): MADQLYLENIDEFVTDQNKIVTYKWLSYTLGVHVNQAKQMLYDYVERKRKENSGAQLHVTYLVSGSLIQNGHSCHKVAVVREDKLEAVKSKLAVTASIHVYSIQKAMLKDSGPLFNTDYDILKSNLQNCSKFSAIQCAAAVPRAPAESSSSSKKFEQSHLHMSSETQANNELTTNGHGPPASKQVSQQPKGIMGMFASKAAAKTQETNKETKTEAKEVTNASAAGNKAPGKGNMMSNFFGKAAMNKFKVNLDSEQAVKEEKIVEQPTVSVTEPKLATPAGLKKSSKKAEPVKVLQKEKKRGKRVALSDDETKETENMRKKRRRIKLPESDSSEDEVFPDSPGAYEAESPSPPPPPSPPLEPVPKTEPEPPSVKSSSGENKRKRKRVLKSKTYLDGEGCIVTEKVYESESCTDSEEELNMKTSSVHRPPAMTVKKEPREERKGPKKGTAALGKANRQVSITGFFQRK

B1: non-tagged recombinant p12 (natural protein)
chain: MGRKRLITDSYPVVKRREGPAGHSKGELAPELGEEPQPRDEEEAELELLRQFDLAWQYGPCTGITRLQRWCRAKQMGLEPPPEVWQVLKTHPGDPRFQCSLWHLYPL
Regarding B1, the restoration of Pol δ activity on poly(dA)/oligo(dT) with PCNA, core+p68 (200 fmoles) pre-incubated with 0-400 ng p12 at 4°C for 30 min, against Pol δ4 was 80% and the restoration of Pol δ activity on singly primed M13 DNA, core+p68 (50 fmoles) pre-incubated with 0-400 ng p12, against Pol δ4 is 96%.
